Biological target: CV1, an engineered high-affinity membrane receptor for CD47
Assay: flow cytometry; HEK 293T cells with light-induced CV1 incubated with biotinylated CD47, detected by streptavidin-PE

Biotinylated CD47 protein (from UniProt Q08722 19-135) (ligand)
percent of engineered cells stained with CD47: > 80%
